One molecule from PMC5932034 can be followed below.

In this experiment the target is T1, FlhA^C−link (longer FlhA^C construct that includes the linker) (Salmonella enterica serovar Typhimurium ST313), P40729.
T1 chain: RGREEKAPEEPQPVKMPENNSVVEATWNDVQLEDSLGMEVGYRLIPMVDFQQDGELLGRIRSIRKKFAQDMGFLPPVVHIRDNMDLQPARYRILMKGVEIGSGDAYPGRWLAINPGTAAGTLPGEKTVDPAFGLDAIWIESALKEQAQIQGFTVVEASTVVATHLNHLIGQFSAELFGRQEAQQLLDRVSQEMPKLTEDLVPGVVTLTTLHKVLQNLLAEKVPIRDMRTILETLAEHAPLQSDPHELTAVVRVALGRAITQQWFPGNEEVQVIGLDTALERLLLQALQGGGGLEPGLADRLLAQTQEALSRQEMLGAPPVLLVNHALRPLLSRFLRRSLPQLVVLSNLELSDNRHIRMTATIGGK
In words: SEC-MALS; Superdex 200 10/300 GL; 50 mM NaPi pH 6.8, 0.1 M NaCl, 0.05% NaN3; samples at 0.05–0.5 mM; room temperature. To be noted: remark: other sources report otherwise. Background: SEC sorts molecules by how far they enter the pores of the column.

B1: FlhA^C−link (longer FlhA^C construct that includes the linker), P40729 328-692 (domain or fragment)
chain: T1 chain
What is called stoichiometry N is the number of molecules, sites or subunits per partner or assembly. B1 gave a stoichiometry N of 2.
